Measurements published in patent US20240254222A1 (Bayer, published 2024).
Substitutions are numbered along the chain they refer to.

T1: Cyno Semaphorin3A-Sema Domain, TPP-19122 (cynomolgus (Macaca fascicularis), UniProt Q63548 21-569 (rat entry), limits assumed)
T1 construct: produced inhouse
T1 chain: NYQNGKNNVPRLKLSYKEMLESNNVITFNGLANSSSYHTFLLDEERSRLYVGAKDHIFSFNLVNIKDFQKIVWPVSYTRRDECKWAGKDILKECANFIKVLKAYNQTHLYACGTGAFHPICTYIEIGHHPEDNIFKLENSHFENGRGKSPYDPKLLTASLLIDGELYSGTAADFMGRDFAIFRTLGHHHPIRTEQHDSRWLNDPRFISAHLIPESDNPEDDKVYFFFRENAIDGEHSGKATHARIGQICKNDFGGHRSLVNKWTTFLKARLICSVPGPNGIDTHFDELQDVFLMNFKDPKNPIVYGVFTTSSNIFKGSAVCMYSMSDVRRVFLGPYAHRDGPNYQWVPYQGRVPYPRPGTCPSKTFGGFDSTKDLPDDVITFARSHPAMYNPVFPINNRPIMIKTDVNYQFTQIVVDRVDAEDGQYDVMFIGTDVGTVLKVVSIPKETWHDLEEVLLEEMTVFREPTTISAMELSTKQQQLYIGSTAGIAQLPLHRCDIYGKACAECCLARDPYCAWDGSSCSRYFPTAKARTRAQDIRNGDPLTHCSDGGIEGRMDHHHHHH

T2: Dog Semaphorin3A-Sema Domain, TPP-19121 (dog, UniProt Q63548 21-569 (rat entry), limits assumed)
T2 construct: produced inhouse
T2 chain: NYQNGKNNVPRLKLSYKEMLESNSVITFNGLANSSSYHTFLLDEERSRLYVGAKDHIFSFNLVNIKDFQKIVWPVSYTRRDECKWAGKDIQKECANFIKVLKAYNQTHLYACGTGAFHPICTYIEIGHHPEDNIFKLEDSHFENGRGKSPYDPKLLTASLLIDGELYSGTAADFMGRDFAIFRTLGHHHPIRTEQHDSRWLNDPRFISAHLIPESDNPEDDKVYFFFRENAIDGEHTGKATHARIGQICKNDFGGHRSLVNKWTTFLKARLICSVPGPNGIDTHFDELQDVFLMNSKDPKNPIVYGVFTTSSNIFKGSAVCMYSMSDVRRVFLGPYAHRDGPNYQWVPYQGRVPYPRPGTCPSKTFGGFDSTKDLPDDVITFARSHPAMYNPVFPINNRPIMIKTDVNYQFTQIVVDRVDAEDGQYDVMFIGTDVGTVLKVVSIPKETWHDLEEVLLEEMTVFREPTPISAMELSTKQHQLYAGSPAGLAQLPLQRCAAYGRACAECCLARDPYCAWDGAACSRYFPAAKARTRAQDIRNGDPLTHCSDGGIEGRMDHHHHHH

T3: Human Semaphorin3A-Sema Domain, TPP-19068 (human, UniProt Q14563 21-569)
T3 construct: produced inhouse in HEK293-6E; also called human monovalent Sema3A domain
T3 sequence: T1 chain with N61D, R205K, P213S, I303V, I396M, M402V, H450Y, T468A, I489V, S521A

B1: TPP-17755 (antibody, human IgG1, lambda, V domains shown)
VH: EVQLLESGGGLVQTGGSLRLSCAASGFTFSDYAMSWVRQAPGKGLEWVSWIYYDSGSKYYADSVKGRFTISRDNSKNTLYLQMNSLRAEDTAVYYCAKLNGDFDYWGQGTLVTVSS
VL: QSVLTQPPSASGTPGQRVTISCSGSSSNIGNNDVSWYQQLPGTAPKLLIYADSHRPSGVPDRFSGSKSGTSASLAISGLRSEDEADYYCGAWDSSLSGYVFGGGTKLTVLG
notes: also called Samsung; Samsung Prior Art F11
B2: TPP-11489 (antibody, human IgG1, lambda)
heavy: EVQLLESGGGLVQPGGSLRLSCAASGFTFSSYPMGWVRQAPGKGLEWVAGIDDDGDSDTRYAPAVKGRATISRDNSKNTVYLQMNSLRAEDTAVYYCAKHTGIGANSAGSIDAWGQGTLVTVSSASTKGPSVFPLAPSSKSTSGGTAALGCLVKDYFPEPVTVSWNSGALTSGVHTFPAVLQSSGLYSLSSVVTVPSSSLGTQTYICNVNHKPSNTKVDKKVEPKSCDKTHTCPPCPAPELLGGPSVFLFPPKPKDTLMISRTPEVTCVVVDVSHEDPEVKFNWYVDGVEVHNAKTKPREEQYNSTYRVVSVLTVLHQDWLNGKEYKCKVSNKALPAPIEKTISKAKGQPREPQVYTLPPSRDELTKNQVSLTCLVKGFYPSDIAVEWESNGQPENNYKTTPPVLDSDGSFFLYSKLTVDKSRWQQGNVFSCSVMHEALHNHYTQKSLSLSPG
light: SYELTQPPSVSVSPGQTARITCSGGGSYTGSYYYGWYQQKPGQAPVTVIYYNNKRPSDIPERFSGSLSGTTNTLTISGVQAEDEADYYCGSADNSGDAFGTGTKVTVLGQPKAAPSVTLFPPSSEELQANKATLVCLISDFYPGAVTVAWKADSSPVKAGVETTTPSKQSNNKYAASSYLSLTPEQWKSHRSYSCQVTHEGSTVEKTVAPTECS
notes: human IgG1; also called Chiome; Chiome Prior Art (hIgG1)
B3: TPP-30792 (antibody, human IgG1, lambda, V domains shown)
V domain 1: EVQLLESGGGLVQPGGSLRLSCAASGFTFRSYAVHWVRQAPGKGLEWVSSTEGSGVGTSYTDSVKGRFTISRDNSKNTLYLQMNSLRAEDTAVYYCARMLGGGNPLDYLDYWGQGTLVTVSS
V domain 2: QSVLTQPPSASGTPGQRVTISCSGSSSNLGEGYDVHWYQQLPGKAPKLLIYYSDFRPSGVSDRFSGSKSGTSASLAISGLQSEDEADYYCAAWDDSLSSQVFGGGTQVTVLG
notes: IgG1; prior art, WO 2020/261281; also called 3H4 Univ Ramot; 3H4 (Ramot) Clon I
B4: TPP-23337 (antibody, human IgG4 S228P, lambda, V domains shown)
VH: EVQLLESGGGLVQPGGSLRLSCAASGFTFSSYAMSWVRQAPGKGLEWVSAIGYGGDTYYADSVKGRFTISRDNSKNTLYLQMNSLRAEDTAVYYCARRDDYTSRDAFDYWGQGTLVTVSS
VL: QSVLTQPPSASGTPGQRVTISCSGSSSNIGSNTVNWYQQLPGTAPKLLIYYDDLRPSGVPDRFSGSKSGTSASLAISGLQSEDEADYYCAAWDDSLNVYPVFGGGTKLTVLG
B5: TPP-15370 (antibody, human IgG1, lambda, V domains shown)
VH: B4 VH with A33G, S35H, Y53T, K64M, Y109V
VL: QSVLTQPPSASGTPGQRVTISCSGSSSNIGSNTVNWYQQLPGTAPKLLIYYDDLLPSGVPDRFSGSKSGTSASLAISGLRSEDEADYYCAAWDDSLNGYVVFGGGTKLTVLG
notes: human IgG1; also called IgG1, hit from panning; parental mAb
B6: TPP-23338 (antibody, human IgG4 S228P, lambda, V domains shown)
VH: B4 VH
VL: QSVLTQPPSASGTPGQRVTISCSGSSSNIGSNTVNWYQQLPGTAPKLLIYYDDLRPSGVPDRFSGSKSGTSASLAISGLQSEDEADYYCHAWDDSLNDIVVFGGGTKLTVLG
B7: TPP-23373 (antibody, human IgG4 S228P, lambda, V domains shown)
VH: B4 VH with S30Y
VL: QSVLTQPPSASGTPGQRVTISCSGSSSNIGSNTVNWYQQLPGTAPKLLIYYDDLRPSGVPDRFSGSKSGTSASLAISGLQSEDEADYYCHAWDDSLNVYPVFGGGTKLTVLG
B8: TPP-23375 (antibody, human IgG4 S228P, lambda, V domains shown)
VH: B4 VH with S30Y
VL: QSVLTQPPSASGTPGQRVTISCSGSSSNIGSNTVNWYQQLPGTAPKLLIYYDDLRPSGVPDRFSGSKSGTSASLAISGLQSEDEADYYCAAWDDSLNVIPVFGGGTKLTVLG
B9: TPP-23347 (antibody, human IgG4 S228P, lambda, V domains shown)
VH: B4 VH with S30Y, S35L, Y53T
VL: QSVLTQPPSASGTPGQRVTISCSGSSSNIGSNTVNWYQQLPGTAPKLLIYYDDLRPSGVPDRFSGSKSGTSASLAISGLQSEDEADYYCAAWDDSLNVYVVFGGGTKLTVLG
B10: TPP-23341 (antibody, human IgG4 S228P, lambda, V domains shown)
VH: B4 VH
VL: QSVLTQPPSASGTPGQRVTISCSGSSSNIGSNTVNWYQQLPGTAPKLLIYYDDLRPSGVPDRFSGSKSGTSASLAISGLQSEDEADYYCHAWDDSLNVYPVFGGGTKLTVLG
B11: TPP-23334 (antibody, human IgG4 S228P, lambda, V domains shown)
VH: B4 VH
VL: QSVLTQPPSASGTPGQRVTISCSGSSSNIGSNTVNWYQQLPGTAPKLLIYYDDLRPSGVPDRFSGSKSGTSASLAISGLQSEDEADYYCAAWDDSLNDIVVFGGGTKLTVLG
B12: TPP-23340 (antibody, human IgG4 S228P, lambda, V domains shown)
VH: B4 VH
VL: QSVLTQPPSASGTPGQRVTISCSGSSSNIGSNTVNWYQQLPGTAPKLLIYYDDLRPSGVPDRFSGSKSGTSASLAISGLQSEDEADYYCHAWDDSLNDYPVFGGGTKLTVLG
B13: TPP-23345 (antibody, human IgG4 S228P, lambda, V domains shown)
VH: B4 VH
VL: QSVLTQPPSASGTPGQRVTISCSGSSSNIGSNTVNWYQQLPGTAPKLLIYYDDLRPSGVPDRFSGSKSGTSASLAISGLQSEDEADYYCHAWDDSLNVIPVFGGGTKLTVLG
B14: TPP-23346 (antibody, human IgG4 S228P, lambda, V domains shown)
VH: B4 VH with S30Y, S35L, Y53T
VL: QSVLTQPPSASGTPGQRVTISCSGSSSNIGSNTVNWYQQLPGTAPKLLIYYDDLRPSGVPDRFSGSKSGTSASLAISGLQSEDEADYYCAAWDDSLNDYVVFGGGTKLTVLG
B15: TPP-23298 (antibody, human IgG4 S228P, lambda, V domains shown)
VH: B4 VH with S30Y, Y53T
VL: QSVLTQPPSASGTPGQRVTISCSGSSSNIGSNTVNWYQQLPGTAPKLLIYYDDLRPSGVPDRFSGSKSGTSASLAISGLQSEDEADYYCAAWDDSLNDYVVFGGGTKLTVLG
B16: TPP-23374 (antibody, human IgG4 S228P, lambda, V domains shown)
VH: B4 VH with S30Y
VL: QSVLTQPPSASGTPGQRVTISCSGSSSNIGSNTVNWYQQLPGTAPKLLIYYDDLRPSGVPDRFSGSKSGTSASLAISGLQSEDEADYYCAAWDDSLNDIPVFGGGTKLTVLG
B17: TPP-30788 (antibody, human IgG1, kappa, V domains shown)
VH: EVQLVESGGGLVQPGGSLRLSCAASGFTFSSYYMSWVRQAPGKGLEWVSTIIKSGGYAYYPDSVKDRFTISRDNSKNTLYLQMSSLRAEDTAVYYCVRGGQGAMDYWGQGTTVTVSS
VL: EIVLTQSPATLSLSPGERATLSCRASQSIGDYLHWYQQKPGQAPRLLIKYASQSISGIPARFSGSGSGTDFTLTITSLEPEDFAVYYCQQGYSFPYTFGGGTKLEIKR
notes: prior art, WO 2020/225400; also called BI clone I; Böhringer (BI) Clone I
B18: TPP-30789 (antibody, human IgG1, kappa, V domains shown)
VH: B17 VH with T28P
VL: B17 VL
notes: prior art, WO 2020/225400; also called BI clone II; Böhringer (BI) Clone II
B19: TPP-30790 (antibody, human IgG1, kappa, V domains shown)
VH: B17 VH with P14L, S84N, R98K
VL: B17 VL with K49Y, T76S
notes: prior art, WO 2020/225400; also called BI clone III; Böhringer (BI) Clone III
B20: TPP-30791 (antibody, human IgG1, kappa, V domains shown)
VH: B17 VH with V12L, P14L, Y80N, S84N, R98K
VL: B17 VL with T76S
notes: prior art, WO 2020/225400; also called BI clone IV; Böhringer (BI) Clone IV
B21: TPP-15374 (antibody, human IgG1, lambda, V domains shown)
VH: EVQLLESGGGLVQPGGSLRLSCAASGFTFSSYEMNWVRQAPGKGLEWVSGISWNSGSIGYADSVKGRFTISRDNSKNTLYLQMNSLRAEDTAVYYCARSGYSSSWFDPDFDYWGQGTLVTVSS
VL: QSVLTQPPSASGTPGQRVTISCTGSSSNIGAGYDVHWYQQLPGTAPKLLIYGNSNRPSGVPDRFSGSKSGTSASLAISGLRSEDEADYYCSSYAGSNPYVVFGGGTKLTVLG
notes: as for B5

Target: T1, Cyno Semaphorin3A-Sema Domain, TPP-19122
Experiment: SPR, captured antibody, Sema3A domain analyte
Experimental: (§1) To assess the binding kinetics and affinity of anti-Sema3A antibodies as well as their species cross-reactivity profile, binding assays were conducted using surface plasmon resonance (SPR). Binding assays were performed on a Biacore T200 instrument or on a Biacore 8K+ instrument (Cytiva) at 25° C. using assay buffer HBS P+, 300 mM NaCl, 0.75 mM CaCl₂, 2.5 mM MgCl₂, 1 mg/ml BSA, 0.05% NaN₃. Antibodies were captured either via anti-human Fc IgGs (“Human antibody capture kit”, Order No. BR100839, Cytiva) or in case of Fc-tagged analytes by anti-human Fab IgGs (“Human Fab capture kit”, Order No. 28958325, Cytiva) covalently amine coupled to a Series S CM5 sensor chip (Cytiva). The amine coupling was carried out according to the manufacturer's instructions using 1-ethyl-3-(3-dimethylaminopropyl) carbodiimide hydrochloride (EDC), N-hydroxysuccinimide (NHS) and ethanolamine HCl, pH 8.5 (“Amine Coupling Kit” BR-1000-50, Cytiva.). For phage display hits Fc-tagged human and mouse Sema3A was used as analytes in a concentration range from 1.56-200 nM. Human, mouse, cynomolgus, rat, dog and pig monovalent Sema3A domain were used as analytes in a concentration series from […] in multi cycle kinetics mode or in 100 nM for binding analysis only. The sensor surface was regenerated with glycine pH 2.0 after each antigen injection. Obtained sensorgrams were double referenced (subtraction of reference flow cell signal and buffer injection) and were fitted to a 1:1 Langmuir binding model to derive kinetic data using the Biacore T200 Evaluation software.

Kd | binding result | Binder
14000 pM | – | B1
63000 pM | – | B2
– | no binding | B3
26 pM | – | B4
40000 pM | – | B5
42 pM | – | B6
72 pM | – | B7
45 pM | – | B8
54 pM | – | B9
87 pM | – | B10
15 pM | – | B11
60 pM | – | B12
62 pM | – | B13
61 pM | – | B14
78 pM | – | B15
< 3 pM | – | B16
78 pM | – | B17
79 pM | – | B18
77 pM | – | B19
57 pM | – | B20
46000 pM | – | B21

Target: T2, Dog Semaphorin3A-Sema Domain, TPP-19121
Experiment: SPR, captured antibody, Sema3A domain analyte
Experimental: as §1

Kd | binding result | Binder
7500 pM | – | B1
50000 pM | – | B2
– | no binding | B3
4.5 pM | – | B4
22000 pM | – | B5
53 pM | – | B6
100 pM | – | B7
45 pM | – | B8
51 pM | – | B9
84 pM | – | B10
8.4 pM | – | B11
58 pM | – | B12
46 pM | – | B13
61 pM | – | B14
70 pM | – | B15
7.3 pM | – | B16
110 pM | – | B17
110 pM | – | B18
100 pM | – | B19
78 pM | – | B20
19000 pM | – | B21

Target: T3, Human Semaphorin3A-Sema Domain, …
Experiment: SPR, captured antibody, Sema3A domain analyte
Experimental: as §1

Kd | binding result | Binder
6900 pM | – | B1
73000 pM | – | B2
– | no binding | B3
50 pM | – | B4
10000 pM | – | B5
54 pM | – | B6
110 pM | – | B7
53 pM | – | B8
60 pM | – | B9
91 pM | – | B10
21 pM | – | B11
22 pM | – | B12
65 pM | – | B13
72 pM | – | B14
87 pM | – | B15
8.1 pM | – | B16
18 pM | – | B17
22 pM | – | B18
15 pM | – | B19
12 pM | – | B20
15000 pM | – | B21
